Biological target: T1, CRF2-4/zcytor11 heterodimeric receptor on BaF3 cells (human, UniProt Q08334 20-325, limits assumed)
T1 sequence 1: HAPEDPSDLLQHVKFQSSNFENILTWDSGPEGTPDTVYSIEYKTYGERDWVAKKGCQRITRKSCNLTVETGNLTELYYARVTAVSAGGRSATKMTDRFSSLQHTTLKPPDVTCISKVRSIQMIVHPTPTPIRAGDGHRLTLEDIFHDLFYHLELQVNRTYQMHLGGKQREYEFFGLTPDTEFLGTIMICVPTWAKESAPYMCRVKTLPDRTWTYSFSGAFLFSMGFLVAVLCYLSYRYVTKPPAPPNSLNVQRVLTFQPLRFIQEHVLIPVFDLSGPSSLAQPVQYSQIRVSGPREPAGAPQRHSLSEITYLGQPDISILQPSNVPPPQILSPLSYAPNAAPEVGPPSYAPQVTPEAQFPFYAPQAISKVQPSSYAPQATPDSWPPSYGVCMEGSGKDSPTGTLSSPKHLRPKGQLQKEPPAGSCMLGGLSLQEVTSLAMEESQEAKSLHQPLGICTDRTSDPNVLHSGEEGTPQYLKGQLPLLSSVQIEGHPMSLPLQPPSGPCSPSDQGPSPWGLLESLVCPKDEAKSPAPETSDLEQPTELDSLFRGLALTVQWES
T1 sequence 2: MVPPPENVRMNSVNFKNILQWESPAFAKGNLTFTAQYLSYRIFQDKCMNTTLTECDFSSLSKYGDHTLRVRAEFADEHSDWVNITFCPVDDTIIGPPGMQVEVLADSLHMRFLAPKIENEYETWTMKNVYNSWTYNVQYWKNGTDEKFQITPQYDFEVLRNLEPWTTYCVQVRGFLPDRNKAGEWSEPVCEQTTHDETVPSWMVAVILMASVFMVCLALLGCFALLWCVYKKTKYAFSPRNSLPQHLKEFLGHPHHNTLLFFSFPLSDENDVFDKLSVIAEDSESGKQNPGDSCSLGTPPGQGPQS
Assay: cell-based or functional assay

proliferation of BaF3/CRF2-4/zcytor11 cells (Alamar Blue), fold induction at 0.06 ng/ml ZCYTO18-CEE: ~2 fold induction
proliferation of BaF3/CRF2-4/zcytor11 cells (Alamar Blue), fold over background at 50 ng/ml ZCYTO18-CEE: ~15 fold over background
B1: ZCYTO18-CEE polypeptide purified from BHK 570 cells (ligand)
chain: APISSHCRLDKSNFQQPYITNRTFMLAKEASLADNNTDVRLIGEKLFHGVSMSERCYLMKQVLNFTLEEVLFPQSDRFQPYMQEVVPFLARLSNRLSTCHIEGDDLHIQRNVQKLKDTVKKLGESGEIKAIGELDLLFMSLRNACIEYMPME

Reference: patent US20030170823A1 (ZymoGenetics, published 2003)
